The results in this text go back to the supplement of paper PMC5998384.

Series [1] deals with HeLa Kyoto. Kind of series: melting temperature (median over replicates), in situ; higher = more thermally stable.
The test system of series [2] is HeLa Kyoto. Kind of series: solubility change mitosis vs G1/S (difference of NP-40 vs SDS log2 ratios) (log2 ratio difference); higher = more soluble in mitosis.
The test system of series [3] is HeLa Kyoto. In words: solubility in G1/S (NP-40 vs SDS abundance) (log2 ratio); higher = more soluble. Particulars: cell cycle stage: G1/S.
The subject of series [4] is HeLa Kyoto. In words: thermal stability score vs G1/S (z-score of summed log2 fold changes over temperatures); higher = more thermally stable than in G1/S.
The mark [5] stands for this setting: cell cycle stage: early G1 (4.5 h after nocodazole release).
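For melting temperature (median over replicates), in situ in this document: HeLa Kyoto cells synchronized by double thymidine or nocodazole block, proteins quantified by TMT10plex mass spectrometry, three independent biological replicates.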
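For solubility change mitosis vs G1/S (difference of NP-40 vs SDS log2 ratios) in this document: synchronized HeLa Kyoto cells (double thymidine block for G1/S, nocodazole release for mitosis), protein amounts in NP-40 versus SDS lysates quantified by mass spectrometry, three biological replicates.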
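For solubility in G1/S (NP-40 vs SDS abundance) in this document: HeLa Kyoto cells arrested at G1/S by double thymidine block, proteins quantified by TMT10plex mass spectrometry in mild NP-40 versus SDS extracts, three biological replicates.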
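For thermal stability score vs G1/S (z-score of summed log2 fold changes over temperatures) in this document: synchronized HeLa Kyoto cells, proteins quantified by TMT10plex mass spectrometry, three biological replicates, mitosis taken 0.5 h after nocodazole release, G1/S directly after double thymidine block.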

Take “MSDFDSNPFADPDLNNPFKDPSVTQVTRNVPPGLDEYNPFSDSRTPPPGGVKMPNVPNTQPAIMKPTEEHPAYTQIAKEHALAQAELLKRQEELERKAAELDRREREMQNLSQHGRKNNWPPLPSNFPVGPCFYQDFSVDIPVEFQKTVKLMYYLWMFHAVTLFLNIFGCLAWFCVDSARAVDFGLSILWFLLFTPCSFVCWYRPLYGAFRSDSSFRFFVFFFVYICQFAVHVLQAAGFHNWGNCGWISSLTGLNQNIPVGIMMIIIAALFTASAVISLVMFKKVHGLYRTTGASFEKAQQEFATGVMSNKTVQTAAANAASTAASSAAQNAFKGNQI [SCAMP1]”: the melting temperature amounted to 55.8 °C with HeLa Kyoto [1] (cell cycle stage: G1/S) and 56 °C in the series on HeLa Kyoto [1] (cell cycle stage: mitosis). Further, in the series on HeLa Kyoto [2], the “solubility change mitosis (log2)” value is -0.114. In the series with HeLa Kyoto [3], the “solubility in G1/S (log2)” value amounted to 0.0609. Further, the thermal stability score was -0.608 with HeLa Kyoto [4] (setting [5]) and -0.121 with HeLa Kyoto [4] (cell cycle stage: mitosis).

“MSDGFDRAPGAGRGRSRGLGRGGGGPEGGGFPNGAGPAERARHQPPQPKAPGFLQPPPLRQPRTTPPPGAQCEVPASPQRPSRPGALPEQTRPLRAPPSSQDKIPQQNSESAMAKPQVVVAPVLMSKLSVNAPEFYPSGYSSSYTESYEDGCEDYPTLSEYVQDFLNHLTEQPGSFETEIEQFAETLNGCVTTDDALQELVELIYQQATSIPNFSYMGARLCNYLSHHLTISPQSGNFRQLLLQRCRTEYEVKDQAAKGDEVTRKRFHAFVLFLGELYLNLEIKGTNGQVTRADILQVGLRELLNALFSNPMDDNLICAVKLLKLTGSVLEDAWKEKGKMDMEEIIQRIENVVLDANCSRDVKQMLLKLVELRSSNWGRVHATSTYREATPENDPNYFMNEPTFYTSDGVPFTAADPDYQEKYQELLEREDFFPDYEENGTDLSGAGDPYLDDIDDEMDPEIEEAYEKFCLESERKRKQ [PAIP1]”: the melting temperature in the series on HeLa Kyoto [1] (cell cycle stage: G1/S) came to 52.9 °C; in the series on HeLa Kyoto [1] (cell cycle stage: mitosis) it was 52.8 °C. The “solubility change mitosis (log2)” value with HeLa Kyoto [2] worked out at 0.154. In addition, in the series on HeLa Kyoto [3], the “solubility in G1/S (log2)” value was 0.466. The thermal stability score in the series with HeLa Kyoto [4] (setting [5]) is 1.49; in the series on HeLa Kyoto [4] (cell cycle stage: mitosis), 1.64.

Turning to “MSDKDDIETPLLTEAAPILEDGNCEPAKNSESVDQGAKPESKSEPVVSTRKRPETKPSSDLETSKVLPIQDNVSKDVPQTRWGYWGSWGKSILSSASATVATVGQGISNVIEKAETSLGIPGPSEISTEVKYVAGETNAKENENSSPVAGAFGVFSTISTAVQSTGKSVISGGLDALEFIGKKTMDVIAEGDPGFKRTKGLMNRNATLSQVLREAKEKEEIRTSNEVTVETDKKTHYGLLFDEFQGLSHLEALEMLSQESEIKVKSILNSLSGEELETLKVELEQLKETFSLAEFCEEEEEEKKGDEDFTKDITELFSQLHVSSKPEKLARARNTAHEWIRKSLTKPLAENEEGEKQSEAENTEQVNKNSIEDIHAFAIRSLAELTACSIELFHKTAALVLHGRKQEVTAIERSQTLSQMTIVLCKELSSLSKEFTTCLTTAGVKEMADVLNPLITAVFLEASNSASYIQDAFQLLLPVLEISLIENKIESHRHELQGQKPLLEH [FAM114A2]”, the melting temperature in the series with HeLa Kyoto [1] (cell cycle stage: G1/S) is 52.3 °C; with HeLa Kyoto [1] (cell cycle stage: mitosis) it was 52 °C. Further, the “solubility change mitosis (log2)” value in the series on HeLa Kyoto [2] is -0.0154. Also, in the series with HeLa Kyoto [3], the “solubility in G1/S (log2)” value amounted to 0.326. The results for the thermal stability score with HeLa Kyoto [4] (setting [5]) and with HeLa Kyoto [4] (cell cycle stage: mitosis) were 0.464 and 0.0988, respectively.

With “MSDLQAAEGPGSWSPTARPGSAGGVGDCQGVEGSQAAASENEDLENKDTSLLASATDPEPCSSPHRPQMVSPVSKDATEDLRKATGPLEAQALVKQDLLPADQAQVLNEMAKYQVPQRSGDIVMIQSEHTGAIDVLSADLESADLLGDHRKVSPPLMAPPCIWTFAKVKEFKSKLGKEKNSRLVVKRGEVVTIRVPTHPEGKRVCWEFATDDYDIGFGVYFDWTPVTSTDITVQVSDSSDDEDEEEEEEEEIEEPVPAGDVERGSRSSLRGRYGEVMPVYRRDSHRDVQAGSHDYPGEGIYLLKFDNSYSLLRNKTLYFHIYYTS [TMED8]”, the figures for the melting temperature in the series on HeLa Kyoto [1] (cell cycle stage: G1/S) and in the series on HeLa Kyoto [1] (cell cycle stage: mitosis) were 50.4 °C and 50.3 °C, respectively. Besides, the “solubility change mitosis (log2)” value with HeLa Kyoto [2] was -0.104. In addition, the “solubility in G1/S (log2)” value in the series on HeLa Kyoto [3] was 0.328. Besides, the thermal stability score in the series on HeLa Kyoto [4] (setting [5]) is -0.422; in the series on HeLa Kyoto [4] (cell cycle stage: mitosis), -0.616.

Consider “MSDTAVADTRRLNSKPQDLTDAYGPPSNFLEIDIFNPQTVGVGRARFTTYEVRMRTNLPIFKLKESCVRRRYSDFEWLKNELERDSKIVVPPLPGKALKRQLPFRGDEGIFEESFIEERRQGLEQFINKIAGHPLAQNERCLHMFLQEEAIDRNYVPGKVRQ [SNX12]”, for which the melting temperature in the series with HeLa Kyoto [1] (cell cycle stage: G1/S) is 49.2 °C; in the series with HeLa Kyoto [1] (cell cycle stage: mitosis) it was 50.7 °C. Besides, in the series on HeLa Kyoto [2], the “solubility change mitosis (log2)” value turned out to be 0.12. In the series with HeLa Kyoto [3], the “solubility in G1/S (log2)” value worked out at 0.348. The thermal stability score in the series on HeLa Kyoto [4] (setting [5]) is -0.501; in the series with HeLa Kyoto [4] (cell cycle stage: mitosis) it was -1.12.

In the case of “MSDTLTADVIGRRVEVNGEHATVRFAGVVPPVAGPWLGVEWDNPERGKHDGSHEGTVYFKCRHPTGGSFIRPNKVNFGTDFLTAIKNRYVLEDGPEEDRKEQIVTIGNKPVETIGFDSIMKQQSQLSKLQEVSLRNCAVSCAGEKGGVAEACPNIRKVDLSKNLLSSWDEVIHIADQLRHLEVLNVSENKLKFPSGSVLTGTLSVLKVLVLNQTGITWAEVLRCVAGCPGLEELYLESNNIFISERPTDVLQTVKLLDLSSNQLIDENQLYLIAHLPRLEQLILSDTGISSLHFPDAGIGCKTSMFPSLKYLVVNDNQISQWSFFNELEKLPSLRALSCLRNPLTKEDKEAETARLLIIASIGQLKTLNKCEILPEERRRAELDYRKAFGNEWKQAGGHKDPEKNRLSEEFLTAHPRYQFLCLKYGAPEDWELKTQQPLMLKNQLLTLKIKYPHQLDQKVLEKQLPGSMTIQKVKGLLSRLLKVPVSDLLLSYESPKKPGREIELENDLKSLQFYSVENGDCLLVRW [TBCE]”, the figures for the melting temperature in the series on HeLa Kyoto [1] (cell cycle stage: G1/S) and in the series on HeLa Kyoto [1] (cell cycle stage: mitosis) were 47.9 °C and 48.4 °C, respectively. Moreover, in the series with HeLa Kyoto [2], the “solubility change mitosis (log2)” value is -0.101. Moreover, the “solubility in G1/S (log2)” value in the series with HeLa Kyoto [3] was determined as 0.308. For the same sequence, the values for the thermal stability score in the series with HeLa Kyoto [4] (setting [5]) and in the series on HeLa Kyoto [4] (cell cycle stage: mitosis) were -0.0546 and 1.48, respectively.
